Measurements reported in publication PMC6275079.

Target: caveolin-1 (rat (endogenous in cerebellar granule neurons)) (UniProt P41350)
Experiment: co-IP; anti-caveolin-1 (sc-894) on ImmunoCruz IP/WB Optima matrix; 400 µg of CGN lysate treated with 1% Triton X-100 for 30 min, incubated overnight at 4 °C, washed with Tris-buffered saline; PKA and CaMK-II detected by Western blot in precipitate and supernatant, percent by densitometry

Sequence of UniProt P41350 (P41350 whole entry): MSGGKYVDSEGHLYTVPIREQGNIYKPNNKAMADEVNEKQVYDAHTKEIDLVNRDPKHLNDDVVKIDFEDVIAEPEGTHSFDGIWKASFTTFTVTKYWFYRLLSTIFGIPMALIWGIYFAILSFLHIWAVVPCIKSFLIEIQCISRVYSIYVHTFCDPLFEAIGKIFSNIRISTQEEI

Row | percentage of coimmunoprecipitation with caveolin-1 | Substance
1 | 39% | calmodulin-dependent protein kinase II (from UniProt P11275 1-478) (enzyme)
2 | 16% | protein kinase A (from UniProt P27791 1-351) (enzyme)
